Experimental data published in article PMC11612176 (The EMBO Journal, 2024).
Read-outs that look alike come from different tables or passages of the source.

What was measured:
ComM = biological target: T1, ComM (Legionella pneumophila, UniProt A0A3A6V972); details: 5 mM AMPPNP, dsDNA/ssDNA hybrid, pH 8.0, 37 °C incubation; active site at interface between adjacent subunits
T1 construct: gene yifB

[1] = biological target: ComM from L. pneumophila fused to a C-terminal His6-tag (Legionella pneumophila) (UniProt Q5ZXZ0); experiment: cryo-EM structure
[2] = biological target: ComM from L. pneumophila fused to a C-terminal His6-tag (Legionella pneumophila) (UniProt Q5ZXZ0); experiment: cryo-EM structure; remark: listed apart in the source
[3] = biological target: RadA R301A mutant from S. pneumoniae (Streptococcus pneumoniae) (UniProt Q8DRP0); experiment: not stated; oligomeric state of RadA as purified for the biochemical assays
[4] = biological target: RadA from S. pneumoniae (Strep-tagged, for cryoEM) (Streptococcus pneumoniae) (UniProt Q8DRP0); experiment: cryo-EM structure; 7 uM RadA with 10 uM gapped hybrid DNA (combination CD) and 5 mM ATP-gamma-S, 30 min at 37 °C; Hepes 50 mM pH 8.0, NaCl 100 mM

In the case of `Nc1ncnc2c1ncn2[C@@H]1O[C@H](COP(=O)(O)OP(=O)(O)NP(=O)(O)O)[C@@H](O)[C@H]1O` [AMPPNP], the “cryoEM structure, 3.1 Å” value (ComM) is reported as “AMPPNP, which is located at the interface between two adjacent subunits”.
“ComM from L. pneumophila fused to a C-terminal His6-tag (from UniProt Q5ZXZ0 1-503) (enzyme)” was tested, and the stoichiometry N [1] was 12 and the stoichiometry N [2] was 6.
“RadA R301A mutant from S. pneumoniae (from UniProt Q8DRP0) (enzyme)” showed a stoichiometry N [3] of 6.
For “RadA from S. pneumoniae (Strep-tagged, for cryoEM) (from UniProt Q8DRP0 1-420) (enzyme)”, the stoichiometry N [4] was 6.
